From IntAct's records for PubMed 23136403

B1: Catenin alpha-3 (Homo sapiens), Q9UI47-1 (parent)
chain: MSAETPITLNIDPQDLQVQTFTVEKLLEPLIIQVTTLVNCPQNPSSRKKGRSKRASVLLASVEEATWNLLDKGEKIAQEATVLKDELTASLEEVRKESEALKVSAERFTDDPCFLPKREAVVQAARALLAAVTRLLILADMIDVMCLLQHVSAFQRTFESLKNVANKSDLQKTYQKLGKELENLDYLAFKRQQDLKSPNQRDEIAGARASLKENSPLLHSICSACLEHSDVASLKASKDTVCEEIQNALNVISNASQGIQNMTTPPEPQAATLGSALDELENLIVLNPLTVTEEEIRPSLEKRLEAIISGAALLADSSCTRDLHRERIIAECNAIRQALQDLLSEYMNNAGKKERSNTLNIALDNMCKKTRDLRRQLRKAIIDHVSDSFLDTTVPLLVLIEAAKNGREKEIKEYAAIFHEHTSRLVEVANLACSMSTNEDGIKIVKIAANHLETLCPQIINAALALAARPKSQAVKNTMEMYKRTWENHIHVLTEAVDDITSIDDFLAVSESHILEDVNKCIIALRDQDADNLDRAAGAIRGRAARVAHIVTGEMDSYEPGAYTEGVMRNVNFLTSTVIPEFVTQVNVALEALSKSSLNVLDDNQFVDISKKIYDTIHDIRCSVMMIRTPEELEDVSDLEEEHEVRSHTSIQTEGKTDRAKMTQLPEAEKEKIAEQVADFKKVKSKLDAEIEIWDDTSNDIIVLAKNMCMIMMEMTDFTRGKGPLKHTTDVIYAAKMISESGSRMDVLARQIANQCPDPSCKQDLLAYLEQIKFYSHQLKICSQVKAEIQNLGGELIMSALDSVTSLIQAAKNLMNAVVQTVKMSYIASTKIIRIQSPAGPRHPVVMWRMKAPAKKPLIKREKPEETCAAVRRGSAKKKIHPLQVMSEFRGRQIY
partner: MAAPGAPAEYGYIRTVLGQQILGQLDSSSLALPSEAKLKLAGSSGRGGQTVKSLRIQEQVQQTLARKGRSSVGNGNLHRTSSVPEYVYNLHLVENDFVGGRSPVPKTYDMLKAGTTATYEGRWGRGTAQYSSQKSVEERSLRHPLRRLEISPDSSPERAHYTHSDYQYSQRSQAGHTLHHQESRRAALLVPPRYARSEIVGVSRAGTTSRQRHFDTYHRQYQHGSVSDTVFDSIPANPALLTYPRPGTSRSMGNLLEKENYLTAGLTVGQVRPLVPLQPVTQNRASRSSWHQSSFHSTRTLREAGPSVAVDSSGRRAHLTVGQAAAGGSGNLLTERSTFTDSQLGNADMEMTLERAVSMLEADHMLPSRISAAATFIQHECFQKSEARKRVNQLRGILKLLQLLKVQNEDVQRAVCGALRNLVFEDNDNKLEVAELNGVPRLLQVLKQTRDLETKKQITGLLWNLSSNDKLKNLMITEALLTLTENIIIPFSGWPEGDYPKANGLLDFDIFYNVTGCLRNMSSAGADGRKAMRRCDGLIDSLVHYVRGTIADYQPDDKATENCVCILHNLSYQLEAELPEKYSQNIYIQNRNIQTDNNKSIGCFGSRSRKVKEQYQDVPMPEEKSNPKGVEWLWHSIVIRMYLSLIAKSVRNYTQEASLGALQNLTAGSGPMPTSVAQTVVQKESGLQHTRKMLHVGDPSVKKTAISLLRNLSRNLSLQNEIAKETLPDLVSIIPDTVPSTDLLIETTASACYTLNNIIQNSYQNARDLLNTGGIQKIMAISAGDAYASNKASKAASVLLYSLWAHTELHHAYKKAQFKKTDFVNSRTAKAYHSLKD
B2: Catenin alpha-3 (Homo sapiens), Q9UI47-1 (parent)
chain: B1 chain
partner: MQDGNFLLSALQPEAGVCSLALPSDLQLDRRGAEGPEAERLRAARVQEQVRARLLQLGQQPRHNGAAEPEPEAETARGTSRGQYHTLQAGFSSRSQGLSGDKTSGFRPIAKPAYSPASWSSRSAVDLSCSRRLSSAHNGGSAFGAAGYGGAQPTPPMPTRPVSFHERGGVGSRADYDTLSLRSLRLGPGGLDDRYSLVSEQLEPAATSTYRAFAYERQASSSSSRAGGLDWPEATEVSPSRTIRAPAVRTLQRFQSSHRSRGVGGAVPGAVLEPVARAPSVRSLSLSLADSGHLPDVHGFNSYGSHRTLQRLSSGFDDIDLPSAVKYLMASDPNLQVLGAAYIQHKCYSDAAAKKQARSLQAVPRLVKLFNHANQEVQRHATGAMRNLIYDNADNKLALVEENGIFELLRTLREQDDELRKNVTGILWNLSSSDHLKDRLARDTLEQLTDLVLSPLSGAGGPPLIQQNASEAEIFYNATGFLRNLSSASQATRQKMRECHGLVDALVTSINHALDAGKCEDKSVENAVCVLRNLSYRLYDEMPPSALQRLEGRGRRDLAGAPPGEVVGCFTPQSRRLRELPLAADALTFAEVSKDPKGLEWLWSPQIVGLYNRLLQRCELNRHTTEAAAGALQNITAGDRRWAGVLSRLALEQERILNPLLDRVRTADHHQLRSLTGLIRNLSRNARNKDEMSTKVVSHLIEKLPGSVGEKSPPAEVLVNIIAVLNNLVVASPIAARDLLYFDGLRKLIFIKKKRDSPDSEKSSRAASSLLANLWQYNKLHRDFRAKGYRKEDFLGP
B3: Catenin alpha-3 (Homo sapiens), Q9UI47-1 (parent)
chain: B1 chain
B4: Catenin alpha-3 (Homo sapiens), Q9UI47-1 (parent)
chain: B1 chain
partner: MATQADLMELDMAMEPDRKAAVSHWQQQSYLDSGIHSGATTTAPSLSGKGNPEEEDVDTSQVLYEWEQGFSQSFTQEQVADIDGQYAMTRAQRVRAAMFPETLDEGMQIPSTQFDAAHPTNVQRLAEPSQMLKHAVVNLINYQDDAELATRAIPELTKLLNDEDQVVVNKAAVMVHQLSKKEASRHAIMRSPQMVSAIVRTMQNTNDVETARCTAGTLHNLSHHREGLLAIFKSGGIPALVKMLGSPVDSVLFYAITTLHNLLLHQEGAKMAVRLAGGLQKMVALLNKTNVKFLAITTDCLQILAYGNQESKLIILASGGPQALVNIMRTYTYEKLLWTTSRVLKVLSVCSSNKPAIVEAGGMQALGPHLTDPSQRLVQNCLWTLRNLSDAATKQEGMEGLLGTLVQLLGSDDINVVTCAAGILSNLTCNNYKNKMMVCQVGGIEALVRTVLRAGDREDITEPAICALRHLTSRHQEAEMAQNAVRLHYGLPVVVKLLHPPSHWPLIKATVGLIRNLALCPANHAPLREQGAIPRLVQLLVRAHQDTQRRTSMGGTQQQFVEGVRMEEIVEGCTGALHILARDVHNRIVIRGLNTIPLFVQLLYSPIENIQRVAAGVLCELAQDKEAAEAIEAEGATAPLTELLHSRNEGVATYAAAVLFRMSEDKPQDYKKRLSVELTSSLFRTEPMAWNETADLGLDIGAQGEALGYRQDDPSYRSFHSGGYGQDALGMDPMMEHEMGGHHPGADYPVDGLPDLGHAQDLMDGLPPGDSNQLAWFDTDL
B5: Catenin alpha-3 (Homo sapiens), Q9UI47-1 (parent)
chain: B1 chain
partner: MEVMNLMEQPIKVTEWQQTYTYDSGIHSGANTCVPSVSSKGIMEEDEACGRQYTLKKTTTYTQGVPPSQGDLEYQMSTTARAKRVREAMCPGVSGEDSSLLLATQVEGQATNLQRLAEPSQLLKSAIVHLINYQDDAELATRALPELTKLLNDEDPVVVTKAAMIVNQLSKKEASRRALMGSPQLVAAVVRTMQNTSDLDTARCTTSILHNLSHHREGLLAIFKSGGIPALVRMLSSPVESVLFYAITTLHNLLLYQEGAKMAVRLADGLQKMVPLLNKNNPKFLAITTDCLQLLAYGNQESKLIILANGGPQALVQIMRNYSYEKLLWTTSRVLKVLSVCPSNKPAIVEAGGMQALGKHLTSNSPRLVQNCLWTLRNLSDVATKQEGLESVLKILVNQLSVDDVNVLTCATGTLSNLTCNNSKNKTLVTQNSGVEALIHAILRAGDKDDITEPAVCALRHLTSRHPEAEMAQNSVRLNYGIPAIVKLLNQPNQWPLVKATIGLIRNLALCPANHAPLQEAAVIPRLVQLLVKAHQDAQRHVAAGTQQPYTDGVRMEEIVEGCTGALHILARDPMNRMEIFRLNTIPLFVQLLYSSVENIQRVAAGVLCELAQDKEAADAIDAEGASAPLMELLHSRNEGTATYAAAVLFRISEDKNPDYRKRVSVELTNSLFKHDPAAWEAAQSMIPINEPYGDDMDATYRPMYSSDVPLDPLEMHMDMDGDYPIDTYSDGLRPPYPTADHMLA

Variants of: B1
Settings: with PKP2, Q99959-2

| Variant | effect of a mutation on the interaction |
| --- | --- |
| V94D | with no effect |

Variants of: B2
Settings: with pkp3_human PKP3, Q9Y446

| Variant | effect of a mutation on the interaction |
| --- | --- |
| V94D | with no effect |

Variants of: B3
Settings: with ctnb1_human CTNNB1, P35222

| Variant | effect of a mutation on the interaction |
| --- | --- |
| V94D | disrupting interaction strength |

Variants of: B3
Settings: with ctnb1_human CTNNB1, P35222
Remark: another data set of the same source

| Variant | effect of a mutation on the interaction |
| --- | --- |
| V94D | decreasing interaction strength |

Variants of: B3
Settings: with ctnb1_mouse Ctnnb1, Q02248

| Variant | effect of a mutation on the interaction |
| --- | --- |
| V94D | disrupting interaction strength |

Variants of: B4
Settings: with ctnb1_rat Ctnnb1, Q9WU82

| Variant | effect of a mutation on the interaction |
| --- | --- |
| V94D | with no effect |

Variants of: B5
Settings: with plak_human JUP

| Variant | effect of a mutation on the interaction |
| --- | --- |
| V94D | disrupting interaction strength |
